For assay [1], the target named is unidentified caltrin receptor on primary mouse calvarial osteoblasts (mouse). The experiment in a line: competition curve: unlabelled caltrin against 10 ng 125I-caltrin on primary calvarial osteoblasts, 4 C, 2 h.
The target of assay [2] is unidentified caltrin binding site on COS-7 monkey kidney cells (monkey). Kind of assay: FACS-based binding, anti-caltrin and labelled anti-rabbit antibody.
For assay [3], the target named is unidentified caltrin binding site on ST2 osteoblast-like cells. The assay is described as above.
In assay [4] the target is unidentified caltrin receptor on primary mouse calvarial osteoblasts (mouse). The experiment in a line: saturation binding of 125I-caltrin on 2×10^5 primary mouse calvarial osteoblasts, Scatchard analysis.

B1: recombinant caltrin (mouse, V5/His-tagged, secreted from baculovirus-infected Sf-9 cells) (ligand, not shown: small tags and cut ends)
chain: LICNSCEKSRDSRCTMPQSRCVAKPGESCSTVSHFVGTKHVYSKQMCSPQCKEKQLNTGKKLIYIMCCEKNLCNSF
Take B1: in assay [1], the Kd was 2.2 nM and the binding sites per cell (Bmax) (binding sites per cell) was 14000. In addition, the shift in the mean fluorescence in assay [2] is 80%. Further, the shift in the mean fluorescence in assay [3] turned out to be 75%.

B2: ^125I-caltrin (radiolabelled recombinant caltrin) (ligand, not shown: small tags and cut ends)
chain: LICNSCEKSRDSRCTMPQSRCVAKPGESCSTVSHFVGTKHVYSKQMCSPQCKEKQLNTGKKLIYIMCCEKNLCNSF
modifications: 125I label by the lactoperoxidase method; labelled residues not stated
Turning to B2, in assay [4], the Kd is 1.2 nM and the binding sites per cell (binding sites per cell) was 60000.

The values are drawn from patent publication US20080119406A1.
